assay: soluble fraction after stress (log2 fold change); higher = more stays soluble; pooled small domains, quantitative proteomics; conditions: stress: 50 degC
Outline: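 After stress at 50°C, the amount of each protein still soluble was measured. This was done on pooled custom libraries of small protein domains, using high-throughput quantitative proteomics. The figure given is a base-two log fold change and stands for aggregation propensity, with higher values meaning more protein stays in solution.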

Point of comparison: “HMAPDYYALLGVPRNATTAEVRKAFRGKALEQHPDRGGDEESFRLLSKAYDVLSDSERRKYYDRTG”, “soluble fraction (log2)” value 0.0767. Against it:
- HMYSVVGKKGIVIEDINYSTGTGQIKSEGEVWSAKTNEQINIPKGTEIEIESIDGVKVIVKPL — within 0.2 log units, 0.0184
- HMQLTPAQHAILAHALEHSDGKIVWFPDNIKGGARKKVLDGLLNRALITTDGTDWFVAAEGYDAMGR — lower, -0.227
- HMSFPDTYFKGNKVIGLSYNDLKKFLNNAGYSKFDEEVEEWGEKRVSIEDDMVDFYLEDDKVVSI — lower, -0.233
- HMRRMTEEQSKLFQGLVSIVQTTLVADMEKGAVTPLLIAEKVDFVADNLYPGKDIDRKEAVAELIRRFSLW — lower, -0.339
- HMAVSPEEQKKRIIELFRNRNEVSFKEIFDLPTKGHFVITLLAVLDLARQQIVIMEQLENEGIIKFTKGA — within 0.2 log units, -0.0715
- HMTAGTGIAYSEFRSKVQEGQVKDVAIAPDRITGTLSSGQKFSTVPVNDPGLPKMLDDFNVKYSGQA — within 0.2 log units, 0.104
- HMHSVIALTIPADYAGLRLDQALAKLLPNWSRSRLQTWIAENRVILDGQITTIKQKVWGNELIQISPQD — lower, -1.45
- HMDDTRLLSEIGLSQRVLNALRARGIERVGQVLAMRPDQLLGIRNFGPRALQELRERLQENGYTEGPLFSG — higher, 0.309
- HMKEFSFNGGKVIMNYEADRIQIKHDSRPNQEVITLMKRNGFKWSPTNQAWQRQITGNAIYVTKNLLKS — lower, -1.35
- HMNMEPNWLKWAKQLAALAQNGLTYSDNPYEIERYEHIRRIAAEMMAEGFELDTKTILELFPREKG — lower, -2.05
- HMEEHSLRKQEMLRIIEALEQLTPKEKTVVVLYYFKGVLFKDIAMLLDVTEGRISQLHTAAMGRLKKLMD — within 0.2 log units, -0.0471
- HMSYKFDSLAIILNKLDGKETVNVSSLSDELEVSARTVHRYIGTLQVAGFPIEYDKTKNSYIFSEGYTL — lower, -0.874
- HMETVMYLRQIKRPQGIYLAIQESYYDSSKKQSRTRTIESIGYLDNLRKEYEDPIAFFSQKAAAMTSEKKK — lower, -1.51
- HMYAHTPEMEAMNELGLEPPVTLDEIKKTYKTLVKKYHPDHNKEDPEAEEKLKKVNMAYTILKVAYTEFEK — lower, -0.147
- HMITKENYLEKIKEIKVNEFPASMRELYDFFNEATRNGTDWSAYEEGNVKYVVDAYLERLNLLYKSN — lower, -0.175
- HMDTRKKLEQIFKLFDKTGTGMVNIDEFKSVLKLFMEEIDEKFGNYFIAYFDENGDGKIEFEEFADVVL — within 0.2 log units, -0.0635
- HMLSDHGLNDRQIMVIAGLMNGGTVTVRSIESQYGVSLNTARADVKMLVDAGLLTETGREVNMKVYSWSGK — lower, -2
- HMIKILGSAYRHGLDDDDILRAWNYHIQEFFEGEDPEKIVRLGFDTHGRLLEIGGEIYPGGGEKIFHAM — lower, -0.729
- HMLKQLGRQEGRQEGAVDALRTVLALQIEQRFGPLDPTVQALIVAADIDALQRALSRVAVVSDLGAVFPP — lower, -0.238
- HMPPELSDEVMEEAMSYLKNQYLNHGVKLEDYPALNKLFVDEAFRSEVIRKTQSNYKISYQSAMASLD — within 0.2 log units, 0.0219
- HMSQSLSGWAAKDLEVKSGADASYRTVGRLPKGSKVSGKIINGYLHIEFDGSMRYVPVSGISKTE — lower, -0.134
- HMSEVPVLVAKTDIKELELIDDRKVTLINVPQKFKMPGSFNSPEEVYNTIAAVPIKEGEQITKPRVTWP — within 0.2 log units, 0.134
- HMIPYSDLLKLLSNDAMPKFRNKDGWAKIHALETYLASRWSYQEYGFASFTVLLETVHNAEIRNDSVRLM — lower, -0.343
- HMTDTDVLSSRLSALSSGRTSAVRLRDGVLSLVLDVGGLSIEARKAMTTAIESTARATPGVEAVRIAET — within 0.2 log units, -0.0141
- HMEDEEILNEIRHTEQYVYYFGNYIMEHHVSRGLSKEKVIASLARELQIEIADIREDFDGMIEQIKTNILN — lower, -0.163
- HMARKTIFHSLLGELEQRIGRLPAGTILPAEQALADEYGVSKPTLRRALAELAEHGLITKENGIGSVVI — lower, -0.45
- HMSQPYFELAAADMEALRNALSTIREIESVVLSGKIFHVEVREDLDPGTMNKLAFERGITLTHLVKKKN — within 0.2 log units, -0.0763
- HMEEEDELALFLREERKNYDLTLTDVHEKTGIPQKVLKEFQWGDAQLTDRQRYTLTQYVEEAREYFQENA — within 0.2 log units, 0.0369
- HMKSILSEIPGIGPKKRKSLMMQFGSVKNISEASLKDLSSTKGINSNLSKEIFNFFSVEKNN — within 0.2 log units, -0.0118
- HMQEDQKTSIFDIEGVEKGVASVLSSIKVEIVSDLLEADMDDILKSGKISEDDLDGVYEAVQNFVER — higher, 0.42
- HMIDEKVQAADKSIEIGNLSPLKGLVTDDEMHELEKLFEKVMALKDFEVNDVGAGRKYIEAYVSFFKFAEG — lower, -0.661
- HMIILYTDEQQRIIDRLNEFIGEQPSQNEAAKLLGISAPILTNLRKGTYTGTVDKFMNKLAAYFNIKADLG — lower, -1.05
- HMNTEEITYSRFQQMLEAGEISQVSIESNRILILPSEETGIEKVLYTGIINDPGLVERLNSAGVEFRAPIE — within 0.2 log units, -0.00156
- HMKRNTKAEVLEILLNSGETPVSGERLAENLGISRNAVWKAVTALKEDGYNISAKRNSGYILNKS — within 0.2 log units, -0.0063
- HMGDFLLTPHRGRSADFVIGNPPYIRLEDVPNDISDAYRAEYASMPGRADIHVGFYEKGLDL — lower, -0.142
- HMDTNELIDRYVNEVGQHLPRKTRADIEMELRSLLLDTLEEQSGGEPTPKMAAEVLREFGHPEEIAAQYH — within 0.2 log units, -0.0557
- HMFDGNIKIVEDAFSVTIVARGTEVKISGDPENVYLASKTVEGLLTLIDKGEAITDQRVHYVIGLVREG — lower, -2.65
- HMTKIKAIFFDIDGTIRSFKTKTIPENTANTLKKLKEQGIKIFIATGRAPFHTTFLNDLLDFKFDGYITIN — lower, -0.282
- HMGPEISEDAKVVFDRLKNHDEILLNNFKSEFDLSNKKWDKIIKELRGNDLISIIKSEDGNLFIKP — within 0.2 log units, -0.00901
- HMYITGAVIRKLREKNNITQLQLAERLRVSDKTISKWETGKGYPDITLLEPIAKTFSVSVTELISGDI — lower, -1.32
- HMLDIQKKGENIAYIEGAGDVIPESLKQIGYHVVTIAPKDINAETLSRFDAVVVGIRAYNTVEDL — lower, -0.244
- HMAMDYYAIGQRIRKFRKAHDWSQEELAEKVEISTTHMSHIETGSTKLSLPVLVSLANVLDVRTDDLLF — lower, -3.88
- HMKAFTKKELQDLVLNIFRASPTTNYNYKQLYKLIRGKDPEIKTLIIAVLLGLEKNGSILQMRPGKYKFS — higher, 0.593
- HMGQKMLTIELQEKVNKMPDNLASYDLKLSADGMSLIYKYSLKSERTGITALLQELKNAGLVMRDLKTEQ — within 0.2 log units, -0.0274
- HMLIELKIPSEWAGKSLHTLNLRQNYNVNVIGFRDEKSGKLNTHFDPSKKLPDEGIILVVADNRTLEKF — lower, -0.837
- HMQVSDANQLTDVVKSIIKQYPVEVEKYKSGKKALFGFFMGKVMENLKGKSNPKILKNVLTEILD — within 0.2 log units, 0.108
- HMAEKRTAIITTARADIRQKPEATAPLAFEAVKDVVLELTDKPADGWVRVKHRDGSTGYIRINQI — within 0.2 log units, 0.0711
- HMNKELVVPDLTDMRVKDAEFEAHQVGMRTEIVDSVYVRRLKRGYVYKQNPVPGSKVKKGRRIALTINAV — within 0.2 log units, 0.202
- HMVKVSVYPNPAVDRITISGEVKAYAVYDATGKVVMKDTDYRGGAIGVSHLPAGIYIVRTDAGAVTVNK — lower, -0.652
- HMISQLRGKVLGTDRDALVIDVGGVGFRVSATAGARALAGQSGNEARLFTEMVVREDSIDLFGF — within 0.2 log units, 0.217
- HMTKQMELLAQGAAKLSVDLNQRQLDQLQTYYRELVDWNQRMNLTAITQYEEVQVKHFLDSL — within 0.2 log units, -0.0986
- HMGESEWIVKWRGEKRDEERLQESELVRDDPEHRISVVRPRDDVDASAWLNRWRKSRYVQYIQPNHRVTIS — within 0.2 log units, 0.0613
- HMDPPISNDARNAINAKLMKFSELHPNEMKKLVEAYKKEFKVSKISPITLARQGEFLSHAISKIDDT — within 0.2 log units, 0.0248
- HMSNEVSYSDFVRSVESDEVNAVTLDGEQIRFVGNDGQTYSVIKPADAQITQLLIDNNVTVRAEQQ — within 0.2 log units, 0.0224
- HMAKPVKSPLPGSVIKVAVKVGQQIKRGDLLLTLESMKMENSILAEKDGVVKNIHVQAGQSVMQDDLLLDI — within 0.2 log units, 0.0752
- HMTIPNGTVVNGTVLEAREAGAYLVRVAGQTLTAQANLPLLVGQHFRAVWDSSGDIPVLRLSDAEQALLGK — within 0.2 log units, 0.119
- HMQVVDWSQVDKEDYLLATKRRAVSTGELKFLLLNNLTYDLTQTRFFKGMDASYYYEGYNLYQTGE — within 0.2 log units, 0.122
- HMNFTETENRIYEEILKNVKQHKKKTVVQIAEKVDVAPSYVIKVAKKLGYSGLNEMWYSLSGIY — lower, -0.54
- HMETYHIQMKGDPSKGIVGFSQLDMVIDKIKRLETEKGIAPYELEVLDGDTMEKYSGEEFLTMHE — within 0.2 log units, 0.0939
- HMDAQEAAWARKMMETLPEKQKLSVALRIEEGLSFKEIGEIIGSSEGAARVNYFHGIRRLRELL — lower, -0.688
- HMKIPYGELIKLLNAAAPKLQDAQGWMDMEAAGQFIGSRWSYLDYGFKDWPDSFKTVHGLEIQGQRMRLA — lower, -0.452
- HMTVDAVALGRRVRHLRKQAGLTLDQLAERTGVSGSHLSLVENARREPRLSLVQRIAEVLGVPVEDL — lower, -1.17
- HMWAQSVSLHGLLGRQALLIVDGKPPRAVAPGQTHLGVTVLSTDEDRAVVALAGGQRLTLRVGESPVSVG — within 0.2 log units, -0.0812
- HMGGLAEGTKITLQNTVNVRASMGEDAEKIGTAYAGEKVTVIMSYAEGWTKVTWNDKTGYIKTSLL — lower, -0.634
- HMPSLGADIRALRKSRKMTLVALADALGRSVGWLSQVERDKSHATIADLGRMAEVLDVSISSFL — lower, -0.27
- HMQVSEQVQRLLDALENDTLTTKELMDRLGLKHRPTFRKNYLLPSMKLGLVEMTIPDKPNSSRQKYRRRQ — lower, -0.65
- HMAPSLQISLKQAIITAQQQHPGSKALNADFDGARGTPRYVIETLLPTGELRELTIDAQSGQVMEDHPDR — within 0.2 log units, 0.119
- HMADGTSIYAEREVLYVTSPTANTAKVYNVSGALVRTMTLSAGQTVRTALPAGFYVVALGNGNTHKVIV — lower, -0.889
- HMNETHANKVYNFLKKKKKPLSAYEILKELASEGISAPTTIYRALNKLVSNGLIHKIESLNAWTV — higher, 0.318
- HMGIQYVASGHYARMETDAQGVSRLFPPESGAPDESDRLAALSPEVLTRLILPLGDFAPEDVEEMAVD — within 0.2 log units, 0.102
- HMERLKKYLDDVRTFLPGTNPKKVDEILREIESHVLERAEREHGEVNDNAVAMSIKEYGSPEEVAARYYEG — within 0.2 log units, 0.194
- HMLLSTHVVVAKEDVQIGTRLQPAMLQVVDWPSASPLKNPLTSIEQATDRVVNMPLVKGEPISMSKLAAKG — within 0.2 log units, 0.00241
- HMAPFVIQQGQDVRLISKGPGFAVSNDGKALTNAAEGQLARARTANGQTVSGIARQGGIIEIA — within 0.2 log units, 0.00455
- HMSFFNGNQMKILRKKLQLNQEEMGEKLGIKKSYVSQLENNRKEITEEIDQILQELEQEYQDKM — lower, -0.323

Reference: the domain aggregation screens of Martell et al. (2025)
